According to US20100204147A1, “Methods For Delivering Thymosin Beta 4, Analogues, Isoforms and Other Derivatives” (REGENERX BIOPHARMACEUTICALS, INC., priority 2003, published 2010):

Molecular target: T1, Aα392-610 sub-fragment (Homo sapiens, UniProt P02671)
T1 construct: (residues Aα221-391 and Aα392-610, respectively); made in house; host or cells: E. coli, pET20b expression vector
T1 sequence (P02671 411-629): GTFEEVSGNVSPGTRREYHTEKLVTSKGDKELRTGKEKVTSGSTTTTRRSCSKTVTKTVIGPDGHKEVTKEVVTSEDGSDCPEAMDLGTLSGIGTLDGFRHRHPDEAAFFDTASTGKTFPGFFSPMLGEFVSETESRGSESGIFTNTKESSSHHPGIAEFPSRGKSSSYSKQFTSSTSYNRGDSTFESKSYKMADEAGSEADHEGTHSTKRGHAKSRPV
Assay: ELISA and kinetic analysis of incorporation into immobilized Aα392-610 sub-fragment
Format: biochemical
Experimental: The interaction between thymosin β4 and fibrin(ogen) and its fragments in the presence or absence of FXIIIa was studies by ELISA using plastic microliter plates. Wells of microliter plates were coated overnight at […] with fibrinogen and fibrin at 10 μg/mL or with the recombinant fragments of 20 μg/ml, all in 0.1 M NaHCO3 buffer, pH 8.3. Fibrin was made by addition to the wells of a mixture containing 10 μg/mL fibrinogen 1 NIH u/ml thrombin and 400 u/ml aprotinin, followed by overnight incubation at +4° C. The wells were then blocked by incubation with Super Blocker (Pierce) at 37° C. for 1 h. Following washing with TBS containing 0.05% Tween-20 (TBS-Tween), the indicated concentrations of thymosin β4, FXIII, FXIIIa(Thr) and FXIIIa(Ca) were added to the wells and incubated for 2-2.5 h at 37° C. Bound (incorporated) thymosin β4 was detected by the reaction with rabbit anti-thymosin β4 serum and peroxidase-conjugated anti-rabbit IgG. A TMB Microwell Peroxidase Substrase was added to the wells, and the incorporated thymosin β4 was measured spectrophotometrically at 450 nm.
To analyze kinetics of the incorporation of thymosin β4 into different fibrin(ogen) fragments, they were immobilized onto the wells of microliter plates (as described above, except that the concentration of all fragments was 20 μg/mL) and incubated with several concentrations of thymosin β4 in the presence of 10 μg/L thrombin-activated factor XIIIa. The incubation mixtures were inhibited every 15 min during 1 hour of incubation by the addition of iodacetamide to final concentration 10 mM. Incorporated thymosin β4 at each time point was detected with rabbit anti-thymosin β4 serum as described above. The initial rates of the reaction of incorporation (V) at different concentrations of thymosin β4 were determined from the slopes of the reaction time course plots and expressed as tangent α=A450/t (min), where A450 represents absorbance at 450 nm in optical units (o.u) which is proportional to the amount of incorporated thymosin β4. […]

- non-covalent interaction with Aα392-610 sub-fragment (ELISA) (non-activated factor XIII or without it): no significant non-covalent interaction
- incorporation into immobilized Aα392-610 sub-fragment (ELISA) (presence of factor XIIIa): incorporated effectively
- Km (thrombin-activated factor XIIIa, Lineweaver-Burk plot, read-out: apparent Michaelis constant (Km) for incorporation into the Aα392-610 sub-fragment): 8.6 ± 3.7 µM
Substance: thymosin β4
